Data as given in patent US20220281980A1 (Bristol-Myers Squibb, published 2022).
Each block holds one binder with its values, some of them ahead of it.

Legend:
[1] = target: T1, human MICA*008 expressed on CHO cells (human, UniProt Q29983 24-331); test: saturation binding of 125I-labelled antibody on CHO-MICA*008 cells, 12,500 cells/well; fit of total binding, non-specific binding not subtracted
T1 construct: also called MICA allele 008
T1 chain: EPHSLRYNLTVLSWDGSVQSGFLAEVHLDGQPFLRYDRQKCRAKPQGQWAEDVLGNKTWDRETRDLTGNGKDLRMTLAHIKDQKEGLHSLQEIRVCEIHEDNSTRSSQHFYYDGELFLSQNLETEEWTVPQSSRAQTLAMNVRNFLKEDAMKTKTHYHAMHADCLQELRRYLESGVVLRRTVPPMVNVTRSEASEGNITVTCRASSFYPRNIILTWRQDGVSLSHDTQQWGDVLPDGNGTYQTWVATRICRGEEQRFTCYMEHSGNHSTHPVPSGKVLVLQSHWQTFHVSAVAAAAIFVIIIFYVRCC
Protocol: (§1) Nonspecific binding was determined by binding in the presence of a titration of a 100 fold molar excess of unlabeled antibody and was subtracted from total counts per minute (CPM) to calculate specific binding. A linear standard curve of ¹²⁵I-MICA.36 concentration versus CPM was used to extrapolate specific activity, maximal nM bound ¹²⁵I-MICA.36 and thereby calculate receptor number per cell.
(§2) Specific activity of the iodinated MICA.36 was determined by plotting antibody titrations against the associated CPMs in a standard curve (FIG. 7A). The specific activity was calculated to be 164,214 CPM in 1 nM of ¹²⁵I-MICA.36. The number of receptors per cell was calculated by the following equation: (Bmax)×(Avogadro's number)×(Assay Volume)/# of cells per well.

[2] = target: T2, human MICA/B endogenously expressed on SW480 cells (human, UniProt Q29983 24-383); test: saturation binding of 125I-labelled antibody on SW480 cells, 25,000 cells/well; fit of total binding, non-specific binding not subtracted; x axis without unit
T2 construct: whole, on cells
T2 sequence (looked up): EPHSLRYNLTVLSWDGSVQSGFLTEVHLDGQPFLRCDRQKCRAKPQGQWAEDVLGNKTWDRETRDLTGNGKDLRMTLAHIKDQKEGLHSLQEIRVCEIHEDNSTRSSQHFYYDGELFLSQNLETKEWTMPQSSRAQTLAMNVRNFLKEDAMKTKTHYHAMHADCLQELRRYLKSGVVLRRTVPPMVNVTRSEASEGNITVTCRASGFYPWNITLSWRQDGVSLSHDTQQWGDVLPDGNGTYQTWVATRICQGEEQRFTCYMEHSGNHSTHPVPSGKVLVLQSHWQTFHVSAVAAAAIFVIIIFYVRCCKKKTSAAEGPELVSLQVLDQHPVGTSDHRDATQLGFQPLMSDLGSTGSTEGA
Protocol: as §1, §2

[3] = target: T3, cynomolgus monkey MICA/B clone #4 expressed on CHO cells (cynomolgus monkey); test: saturation binding of 125I-labelled antibody on CHO-MICA Cyno #4 cells, 25K per well; fit of total binding, non-specific binding not subtracted
T3 construct: whole, on cells; also called cyno#4; CHO-cyno MICA clone #4
Protocol: as §1

[4] = target: T1, human MICA*008 expressed on CHO cells; test: saturation binding of 125I-labelled antibody on CHO-MICA*008 cells, 12,500 cells/well (Scatchard analysis); specific = total minus binding with 100-fold unlabelled antibody; unit from the x axis 'nM Antibody'
Protocol: as §1, §2

[5] = target: T4, human MICB expressed on transduced cells (human, UniProt Q29980 23-382); test: saturation binding of 125I-labelled antibody on CHO-MICB cells, 12500 per well; fit of total binding, non-specific binding not subtracted; x axis without unit
T4 construct: also called MICB*005
T4 chain: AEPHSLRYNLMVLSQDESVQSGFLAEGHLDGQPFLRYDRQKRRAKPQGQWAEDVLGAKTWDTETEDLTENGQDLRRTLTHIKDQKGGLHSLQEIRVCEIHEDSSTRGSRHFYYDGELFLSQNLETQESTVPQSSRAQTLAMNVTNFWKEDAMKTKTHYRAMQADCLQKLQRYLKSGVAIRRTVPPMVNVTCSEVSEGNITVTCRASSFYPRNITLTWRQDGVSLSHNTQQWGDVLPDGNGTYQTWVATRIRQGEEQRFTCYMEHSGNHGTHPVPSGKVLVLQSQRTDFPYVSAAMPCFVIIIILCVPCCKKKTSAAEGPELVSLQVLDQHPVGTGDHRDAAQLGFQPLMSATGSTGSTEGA
Protocol: as §1, §2

[6] = target: T5, human MICA/B endogenously expressed on 786-O cells (MICA allele *008) (human, UniProt Q29983 24-331); test: Scatchard analysis, 125I-MICA.36 on 786-0 cells; 786-0 cells (FIG. 7F)
T5 construct: it speaks of MICA/B, so MICB may be present as well; also called 786-0
T5 chain: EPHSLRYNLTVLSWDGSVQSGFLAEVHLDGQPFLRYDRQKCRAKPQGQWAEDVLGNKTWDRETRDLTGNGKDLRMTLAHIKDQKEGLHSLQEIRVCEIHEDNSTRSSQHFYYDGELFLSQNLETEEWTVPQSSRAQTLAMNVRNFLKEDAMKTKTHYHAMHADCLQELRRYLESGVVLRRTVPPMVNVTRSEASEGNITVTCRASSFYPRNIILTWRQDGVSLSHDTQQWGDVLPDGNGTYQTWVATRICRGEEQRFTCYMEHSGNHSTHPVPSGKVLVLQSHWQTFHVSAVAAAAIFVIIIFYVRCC
Protocol: as §1, §2

[7] = target: T5, human MICA/B endogenously expressed on …; test: saturation binding of 125I-labelled antibody on 786-O cells, 50,000 cells/well; fit of total binding, non-specific binding not subtracted
Protocol: as §1

[8] = target: T6, cynomolgus monkey MICA/B clone #6 expressed on CHO cells (cynomolgus monkey); test: saturation binding of 125I-labelled antibody on CHO-MICA Cyno #6 cells, 25K per well (Scatchard analysis); unit from the x axis 'nM Radioligand'
T6 construct: whole, on cells; also called cyno#6; CHO-cyno MICA clone #6
Protocol: as §1, §2

[9] = target: T2, human MICA/B endogenously expressed on …; test: saturation binding of 125I-labelled antibody on SW480 cells, 25,000 cells/well (Scatchard analysis); x axis 'Ab' carries no unit, nM taken from paragraph 587; non-specific binding is nearly as high as specific binding
Protocol: as §1, §2

[10] = target: T7, human MICA/B endogenously expressed on RPMI-8226 cells (human, UniProt Q29983 24-383); test: flow cytometry, tumor cells with endogenous MICA/B
T7 construct: whole, on cells
T7 sequence (looked up): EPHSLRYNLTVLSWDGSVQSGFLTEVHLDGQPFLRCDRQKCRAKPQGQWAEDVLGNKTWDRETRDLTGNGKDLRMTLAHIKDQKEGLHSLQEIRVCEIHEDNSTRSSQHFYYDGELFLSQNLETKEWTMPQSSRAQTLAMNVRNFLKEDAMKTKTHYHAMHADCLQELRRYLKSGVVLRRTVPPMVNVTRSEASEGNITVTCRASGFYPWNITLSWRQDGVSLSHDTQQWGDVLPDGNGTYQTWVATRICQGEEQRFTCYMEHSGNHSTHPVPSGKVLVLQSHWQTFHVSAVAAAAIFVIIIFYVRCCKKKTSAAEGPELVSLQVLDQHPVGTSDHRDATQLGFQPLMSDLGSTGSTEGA

[11] = target: T6, cynomolgus monkey MICA/B clone #6 …; test: flow cytometry (GMFI, FACSCalibur), CHO cells with cyno MICA #6; unit from the x axis; curve from about 1500 at 0.1 ug/ml to about 40500 GMFI at 40 ug/ml

- Kd of the total-binding curve [1]: 1.24 nM
- Kd of the total-binding curve [2]: 0.871 nM
- Kd of the total-binding curve [3]: 10.2 nM
- Kd [4]: 1.07 nM
- Kd of the total-binding curve [5]: 2.8 nM
- Kd [6]: ~0.4 nM
- Kd of the total-binding curve [7]: 0.6 nM
- Kd [8]: 5.12 nM
- Kd [9]: 0.385 nM
B1: MICA.36 (antibody, V domains shown)
VH: QVQLVESGGGVVQPGRSLRLSCAASGFTFSNYAMHWVRQAPGEGLEWVALIWYDGSNKFYGDSVKGRFTISRDNSKNTLYLQMNSLSAEDTAVYYCAREGSGHYWGQGTLVTVSS
VL: AIQLTQSPSSLSASVGDRVTITCRASQGISSALAWYQQKPGKVPKSLIYDASSLESGVPSRFSGSGSGTDFTLTISSLQPEDFATYYCQQFNSYPITFGQGTRLEIK
notes: it says that the name implies no specific constant region; Radioiodinated in the Scatchard assay; also called MICA.36 antibody

- EC50 [10]: 3.89 nM
- EC50 [11]: 3.3 µg/mL
B2: 19G6 (antibody, V domains shown)
VH: QVQLVESGGGVVQPGRSLRLSCAASGFTFSNYAMHWVRQAPGEGLEWVALIWYDGSNKFYGDSVKGRFTISRDNSKNTLYLQMNSLSAEDTAVYYCAREGSGHYWGQGTLVTVSS
VL: AIQLTQSPSSLSASVGDRVTITCRASQGISSALAWYQQKPGKVPKSLIYDASSLESGVPSRFSGSGSGTDFTLTISSLQPEDFATYYCQQFNSYPITFGQGTRLEIK
notes: Hybridoma antibody from human IgG transgenic mice, parent of MICA.36; also called 19G6 mAb; hybridoma 19G6

- EC50 [10]: 36.9 nM
B4: 71C2 (antibody, V domains shown)
VH: EVQLVESGGGLVQPGRSLRLSCAASGFTFNNYAMHWVRQAPGKGLEWVSGITWNSDSIGYADSVKGRFTISRDNAKNSLYLQMNSLRAEDTALYYCAKDSVLLWFGGMDVWGQGTTVTVSS
VL: not shown
notes: Hybridoma antibody

Continued, binder first:

B3: MICA.2 (antibody, human IgG1, kappa, V domains shown)
VH: EVQLVESGGGLVQPGGSLRLSCAASGFTFSTYSMNWVRQAPGKGLEWVSYISYRSRTIYYADSVKGRFTISRDNARNSLYLQMNSLRDEDTAVYYCARWGYGSGGFDYWGQGTLVTVSS
VL: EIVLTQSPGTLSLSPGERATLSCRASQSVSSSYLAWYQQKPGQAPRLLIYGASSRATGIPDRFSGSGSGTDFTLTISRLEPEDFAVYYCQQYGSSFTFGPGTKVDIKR
notes: 3F5 variable regions on human IgG1f and human kappa constant regions, made in CHO-S cells; also called 3F5; recombinant antibody of 3F5
- EC50 [10]: 41.9 nM

B5: 24G11 (antibody, V domains shown)
VH: EVQLVQSGAEVKKPGESLKISCKGSGYSFTNYWIGWVRQMPGKGLEWLGIIHPGDSYTRYSPSFQGQVTISADKSISTAYLQWSSLKASDTAIYYCAREGIAATPFDYWGQGTLVTVSS
VL: EIVLTQSPATLSLSPGERATLSCRASQSVSSYLAWFQQKPGQAPRLLIYDASNRATGIPARFSGSGSGTDFTLTISSLEPEDFAVYYCQQRSNWPPTFGQGTKVEIK
notes: also called MICA.54; 24G11 (MICA.54)
- EC50 [10]: 104 nM
